The labels stand for the following.
B1: C4598F8: SEQ ID NO: 60; H244W+T344A+I396K+I109V+V262A+V287I+K309N (protein)
chain: MADKNILYGPEPFYPLEDGTAGEQMFDALSRYAAIPGCIALTNAHTKENVLYEEFLKLSCRLAESFKKYGLKQNDTIAVCSENSLQFFLPVIASLYLGIIVAPVNDKYVERELIHSLGIVKPRIVFCSKNTFQKVLNVKSKLKSIETIIILDLNEDLGGYQCLNNFISQNSDSNLDVKKFKPYSFNRDDQVASIMFSSGTTGLPKGVMLTHKNIVARFSIAKDPTFGNAINPTSAILTVIPFHWGFGMMTTLGYFTCGFRVALMHTFEEKLFLQSLQDYKVESTLLIPTLMAFLAKSALVEKYDLSHLNEIASGGAPLSKEIGEMVKKRFKLNFVRQGYGLTEATSAVLITPKGDAKPGSTGKIVPLHAVKVVDPTTGKILGPNEPGELYFKGPMKMKGYYNNEEATKAIIDNDGWLRSGDIAYYDNDGHFYIVDRLKSLIKYKGYQVAPAEIEGILLQHPYIVDAGVTGIPDEAAGELPAAGVVVQTGKYLNEQIVQDYVASQVSTAKWLRGGVKFLDEIPKGSTGKIDRKVLRQMLEKHTNGHHHHHHHH
B2: C4609F7: SEQ ID NO: 64; H244W+T344A+I396K+Y108F+V262A+L305F (protein)
chain: B1 chain with Y108F, V109I, I287V, L305F, N309K
B3: C4581C3: SEQ ID NO: 55; H244W+T344A+I396K+I109M+S193L (protein)
chain: B1 chain with V109M, S193L, A262V, I287V, N309K
B4: C4580E9: SEQ ID NO: 54; H244W+T344A+I396K+N228D+V287I (protein)
chain: B1 chain with V109I, N228D, A262V, N309K
B5: C4610H6: SEQ ID NO: 66; H244W+T344A+I396K+K107Q+N228D (protein)
chain: B1 chain with K107Q, V109I, N228D, A262V, I287V, N309K
B6: C4629G5: SEQ ID NO: 67; H244W+T344A+I396K+I236V (protein)
chain: B1 chain with V109I, I236V, A262V, I287V, N309K
B7: C4601C8: SEQ ID NO: 61; H244W+T344A+I396K+S193P (protein)
chain: B1 chain with V109I, S193P, A262V, I287V, N309K
B8: C4584G5: SEQ ID NO: 57; H244W+T344A+I396K+K107Q+L305F (protein)
chain: B1 chain with K107Q, V109I, A262V, I287V, L305F, N309K
B9: C4608E7: SEQ ID NO: 63; H244W+T344A+I396K+K121N+N228D+V287I (protein)
chain: B1 chain with V109I, K121N, N228D, A262V, N309K

Experimental findings from US12545899B2, “Luciferase enzymes for use with thermostable luciferins in bioluminescent assays” (Promega Corporation, priority 2018, dated 2026) are described below.

Changes are numbered by the printed parent chain. In names and notes the source's numbering stands.

The first experiment in a line: E. coli lysate screen of epPCR/DNA shuffling variants with CS0280. It counts as biochemical. Conditions: Detection Reagent, 1 mM ATP, 500 μM substrate, 3 mins. As for the experimental part: (§1) These experiments included lysing E. coli cells expressing each luciferase enzyme variant in Detection Reagent containing 1 mM ATP+500 μM substrate. The cell lysate was incubated at room temperature for 3 mins and luminescence was read. The raw luminescence reading was normalized to the on-plate luminescence of ATG-2889, which was used as a control in this screen.
B1: the “Normalized luminescence (Mutant RLU/ATG2889 RLU) with CS0280” value is listed as 5.88.

As for B2, the “Normalized luminescence (Mutant RLU/ATG2889 RLU) with CS0280” value stood at 3.90.

For B3, the “Normalized luminescence (Mutant RLU/ATG2889 RLU) with CS0280” value was found to be 3.88.

On to B4, for which the “Normalized luminescence (Mutant RLU/ATG2889 RLU) with CS0280” value turned out to be 4.00.

B5: the “Normalized luminescence (Mutant RLU/ATG2889 RLU) with CS0280” value is on record as 3.67.

As to B6, the “Normalized luminescence (Mutant RLU/ATG2889 RLU) with CS0280” value was determined as 5.06.

With B7, the “Normalized luminescence (Mutant RLU/ATG2889 RLU) with CS0280” value amounted to 4.53.

As to B8, the “Normalized luminescence (Mutant RLU/ATG2889 RLU) with CS0280” value stood at 4.39.

As for B9, the “Normalized luminescence (Mutant RLU/ATG2889 RLU) with CS0280” value worked out at 5.26.

Another experiment is described as follows: E. coli lysate screen of epPCR/DNA shuffling variants with CS0333. The conditions noted are these: Detection Reagent, 1 mM ATP, 500 μM substrate, 3 mins. The experiment is classed as biochemical. As for the experimental part: as §1
Regarding B1, the “Normalized luminescence (Mutant RLU/ATG2889 RLU) with CS0333” value is 4.91.

As for B2, the “Normalized luminescence (Mutant RLU/ATG2889 RLU) with CS0333” value worked out at 6.04.

With B3, the “Normalized luminescence (Mutant RLU/ATG2889 RLU) with CS0333” value came out at 1.04.

For B4, the “Normalized luminescence (Mutant RLU/ATG2889 RLU) with CS0333” value is recorded as 6.51.

Turning to B5, the “Normalized luminescence (Mutant RLU/ATG2889 RLU) with CS0333” value is 4.15.

Turning to B6, the “Normalized luminescence (Mutant RLU/ATG2889 RLU) with CS0333” value came out at 2.26.

As to B7, the “Normalized luminescence (Mutant RLU/ATG2889 RLU) with CS0333” value stood at 3.32.

As to B8, the “Normalized luminescence (Mutant RLU/ATG2889 RLU) with CS0333” value is on record as 3.42.

Consider B9, for which the “Normalized luminescence (Mutant RLU/ATG2889 RLU) with CS0333” value was 6.86.
